Measurements published in PMC4303335.

Legend:
[1] = target: H3–K27 substrate peptide of the sensor (no NLS); assay: split reporter
[2] = target: H3–K9 substrate peptide of the sensor with C-terminal NLS (NhRluc8.6-Suv39H1–H3–K9-ChRLuc-NLS); assay: split reporter

Row | Substance | reconstituted RLuc signal (RLU/μg protein) [1] | reconstituted RLuc signal [2] | reconstituted RLuc signal (RLU/μg protein) [2]
1 | Pc2 chromodomain in the H3–K27 sensor (domain or fragment) | 3.67e+07 |  | 
2 | Suv39H1 chromodomain in the H3–K9 sensor (NhRluc8.6-Suv39H1–H3–K9-ChRLuc) (domain or fragment) |  | 3.3e+06 | 5.26e+06
3 | Suv39H1 chromodomain mutant (W64A, W74A) in the H3–K9 sensor (domain or fragment) |  | 1.75e+06 | 
